Results reported in article PMC11464722 (Nature Communications, 2024).

Molecular target: SNAP-tagged murine µOR on HEK293 cells (murine, UniProt P42866, SNAP-Lumi4-Tb (terbium cryptate) on the SNAP tag)
Assay: AlphaScreen or HTRF

Chain of SNAP-tagged murine µOR on HEK293 cells (P42866 whole entry): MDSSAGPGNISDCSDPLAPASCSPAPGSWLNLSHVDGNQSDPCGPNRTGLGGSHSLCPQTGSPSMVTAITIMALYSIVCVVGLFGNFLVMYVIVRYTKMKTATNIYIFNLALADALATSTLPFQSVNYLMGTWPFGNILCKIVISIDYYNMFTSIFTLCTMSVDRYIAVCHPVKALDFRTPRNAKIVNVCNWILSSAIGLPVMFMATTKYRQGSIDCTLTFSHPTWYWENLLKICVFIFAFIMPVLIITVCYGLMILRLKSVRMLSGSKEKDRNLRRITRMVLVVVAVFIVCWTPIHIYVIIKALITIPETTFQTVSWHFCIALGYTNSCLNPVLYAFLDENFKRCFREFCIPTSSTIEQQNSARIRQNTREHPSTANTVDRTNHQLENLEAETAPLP

B1: mNbE (N45K, Q117K, Q120P)-6xHis (VHH)
VHH: QVQLVESGGGLVQAGGSLRLSCAASGSISSISTMGWYRQAPGKERELVAAITSGGSTNYADSVKGRFTISRDNAKNTVYLQMNSLKPEDTAVYYCNFKYYSGSYFYKSEYDYWGKGTPVTVSS
- binding result: binds
